This is an account of results in patent US20210230263A1 (BIOATLA, published 2021).

Positions count from the first letter of the chain named.

Assay [1] addresses T1, human IL-22 (human, UniProt Q9GZX6 34-179).
T1 sequence (looked up): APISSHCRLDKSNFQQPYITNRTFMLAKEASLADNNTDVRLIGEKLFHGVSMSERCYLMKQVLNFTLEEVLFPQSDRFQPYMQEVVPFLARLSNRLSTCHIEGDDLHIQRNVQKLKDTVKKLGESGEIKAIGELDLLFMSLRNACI
The assay is described as follows: cell-based or functional assay.

A further assay has as its target T2, human IL26 (human, UniProt Q9NPH9 22-171, limits assumed).
T2 sequence (looked up): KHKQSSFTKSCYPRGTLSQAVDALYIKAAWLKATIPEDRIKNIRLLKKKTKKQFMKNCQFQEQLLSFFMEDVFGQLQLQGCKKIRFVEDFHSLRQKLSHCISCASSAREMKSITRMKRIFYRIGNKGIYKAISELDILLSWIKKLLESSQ
Description: ELISA on coated antigen (1 ug/ml), anti-hIgG-HRP, OD450.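 Further: specificity check of antibodies applied at 100 ng/ml to wells bearing human or mouse IL-22, related cytokines or an unrelated control antigen.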

A further assay concerns the target T3, human IL19 (human, UniProt Q9UHD0 25-177).
T3 sequence (looked up): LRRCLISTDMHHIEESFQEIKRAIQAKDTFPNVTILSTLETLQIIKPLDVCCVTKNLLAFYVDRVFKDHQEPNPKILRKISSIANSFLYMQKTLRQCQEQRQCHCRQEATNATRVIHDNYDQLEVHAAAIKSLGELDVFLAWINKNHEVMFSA
The assay is described as above.

Assay [2] has as its target T4, mouse IL-22 (mouse, UniProt Q9JJY9 34-179).
T4 construct: also called mIL-22; mIL22
T4 sequence (looked up): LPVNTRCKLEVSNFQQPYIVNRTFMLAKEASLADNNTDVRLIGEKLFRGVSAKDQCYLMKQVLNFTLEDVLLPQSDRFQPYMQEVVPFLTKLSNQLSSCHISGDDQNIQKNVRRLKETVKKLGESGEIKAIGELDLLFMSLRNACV
The assay is described as above.
Description: (§1) Plates were coated with 100 μl antigens at a concentration of 1 μg/ml. The plates were exposed to the antibodies at a concentration of 100 ng/ml. The bound antibodies were detected with anti-hIgG-HRP by the ELISA assay.

The target in another assay is T5, human IL20 (human, UniProt Q9NYY1 25-176).
T5 sequence (looked up): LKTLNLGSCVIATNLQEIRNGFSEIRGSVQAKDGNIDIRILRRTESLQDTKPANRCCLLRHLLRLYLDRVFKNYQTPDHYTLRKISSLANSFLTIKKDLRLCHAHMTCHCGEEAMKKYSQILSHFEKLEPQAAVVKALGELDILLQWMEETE
The description is as above.

Another assay addresses INF-λ1 (Homo sapiens (Human), UniProt Q8IU54 20-200). Described as above.
A further assay deals with T6, INF-γ (Homo sapiens (Human), UniProt P01579 24-161).
T6 sequence: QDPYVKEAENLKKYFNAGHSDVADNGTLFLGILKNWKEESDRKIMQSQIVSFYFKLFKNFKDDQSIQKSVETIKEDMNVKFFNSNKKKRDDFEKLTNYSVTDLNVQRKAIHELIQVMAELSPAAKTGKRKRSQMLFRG
Described as above.

For a further assay, the target named is T7, human IL24 (human, UniProt Q13007 52-206, limits assumed).
T7 sequence (looked up): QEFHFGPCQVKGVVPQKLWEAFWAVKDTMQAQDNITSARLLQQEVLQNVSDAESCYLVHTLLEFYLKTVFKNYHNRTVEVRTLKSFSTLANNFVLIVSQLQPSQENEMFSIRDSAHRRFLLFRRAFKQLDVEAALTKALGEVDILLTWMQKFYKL
Described as above.

Assay [3] deals with T1, human IL-22. The assay is described as follows: affinity ELISA on hIL22, mAb concentration at 50% max signal.
Assay [4] concerns the target T4, mouse IL-22. The assay is described as follows: affinity ELISA and titration ELISA, CPE library screen.
Description: (§2) Specifically, the CPE™ variants were screened by affinity ELISA for mouse IL-22 (mIL-22) binding affinity. […] The primary CPE™ hits were re-arrayed, re-transfected, and screened again by affinity ELISA and also by titration ELISA using both mIL-22 and human IL-22 (hIL-22) for antibodies that bind to both mIL-22 and hIL-22.
The target in assay [5] is T1, human IL-22. Described as above.
Description: as §2
In assay [6] the target is T4, mouse IL-22. The assay is described as follows: cell-based or functional assay.
Assay [7] deals with IL-22 (CXCL1 assay in HT29 cells). Description: cell-based or functional assay.
Assay [8] has the same target. Description: cell-based or functional assay. The source holds these as a separate data set.
Assay [9] concerns the target T4, mouse IL-22. The assay is described as follows: affinity ELISA on mIL22, mAb concentration at 50% max signal.
Assay [10] addresses T1, human IL-22. The assay is described as follows: SPR (SierraSensors SPR-2), hIL-22 immobilized on chip, antibody injected, Langmuir 1:1 model.
Description: (§3) The affinity of the 10 antibodies of Table 1 was measured by Surface Plasma Resonance (SPR) using a capture assay on a SPR-2 instrument (SierraSensiors, Hamburg, Germany). The antigens hIL-22 and mIL-22 were immobilized on chips. The running buffer for the assay contained 10 mM HEPES with a pH of 7.4, 500 mM NaCl, and 0.05% TWEEN® 20. […] The off-rate was measured for 6 minutes. Binding constants were calculated using the curve fitting software Analyzer2 (Sierra Sensors). Sensorgrams were analyzed with the instrument specific software and with BIAevaluation 4.1 software. The binding data were analyzed using the Langmuir 1:1 model (human IL-22) or a model for a heterogeneous ligand (mouse IL-220).
In assay [11] the target is T1, human IL-22. The assay is described as follows: affinity ELISA on hIL22, mAb concentration at 50% max signal (second row of the same name).
Assay [12] addresses T4, mouse IL-22. The assay is described as follows: affinity ELISA on mIL22, mAb concentration at 50% max signal (second row of the same name).
Assay [13] concerns the target T4, mouse IL-22. The assay is described as follows: SPR (SierraSensors SPR-2), mIL-22 immobilized on chip, antibody injected, heterogeneous ligand model.
Description: as §3

Sequence of INF-λ1 (Q8IU54 20-200 limits assumed): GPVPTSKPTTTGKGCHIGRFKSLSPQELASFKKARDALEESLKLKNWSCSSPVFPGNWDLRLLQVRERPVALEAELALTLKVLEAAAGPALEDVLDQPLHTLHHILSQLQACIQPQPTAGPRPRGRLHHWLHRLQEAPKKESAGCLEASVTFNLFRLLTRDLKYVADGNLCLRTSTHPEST
Description for INF-γ: as §1
Description for INF-λ1: as §1
Description for human IL19: as §1
Description for human IL20: as §1
Description for human IL24: as §1
Description for human IL26: as §1

B1: hum10 (antibody, V domains shown)
VH: QVQLVQSGAEVKKPGASVKVSCKASGYIFTSYWIHWIRQPPGKGLEWIGRIYPGTGNTYYNEKFKGRVTISADKSISTAYLQWSSLKASDTAMYYCARSYDSSCAYWGQGTLVTVSS
VL: AIQLTQSPSSLSASVGDRVTITCSASSSVSYMHWYLQKPGQSPQLLIYETSKLASGVPSRFSGSGSGTDFTFTISSLEAEDAATYYCQQWSSNPYITFGQGTKVEIKR
notes: Humanized monoclonal antibody derived from murine 3C3; also called parent antibody hum10; humanized 3C3
As to B1, the “STAT3 Phosphorylation; hIL22 % inhibition mAb [0.73 nM]” value in the assay with human IL-22 [1] was 7%. Further, the binding result with human IL26, with human IL19, in the assay with mouse IL-22 [2], with human IL20, with INF-λ1 and in the assay with INF-γ was “no binding (tested: 100 ng/ml)” throughout. The binding result with human IL24 is reported as “no binding (tested: 100 ng/ml)”. In addition, the midpoint of the response in the assay with human IL-22 [3], the EC50, lay at 2.22 nM.

B2: CPS-11 (antibody, V domains shown)
VH: B1 VH with T30R, N57R, S102Y, C104V
VL: B1 VL with E49K, S51R
notes: Mutant of humanized hum10, whole antibody expressed in CHO cells; also called LC-06 / HC-25
Turning to B2, the binding result in the assay with mouse IL-22 [4] and with human IL-22 [5] was “binds” in each case.

B3: CPS-16 (antibody, V domains shown)
VH: B1 VH with T30R, E62R, D101M, S102Y, C104V
VL: B1 VL with E49K
notes: Mutant of humanized hum10, whole antibody expressed in CHO cells; also called LC-03 / HC-49
With B3, the binding result with mouse IL-22 [4] and with human IL-22 [5] was “binds” each time.

B4: CPS-02 (antibody, V domains shown)
VH: B1 VH with T30R, N57R, C104V
VL: B1 VL with E49K, S51R
notes: Mutant of humanized hum10, whole antibody expressed in CHO cells; also called CPS-hit-02; CSP02
On to B4, for which the “Acute Phase response 5 µg mIL22 and 5 µg mAb (% signal reduction), molar ratio mIL22: mAb = 4.5:1 (serum amyloid in mice)” value with mouse IL-22 [6] is 81%. For the same molecule, in [7], the “CXCL-1 Assay (IC50 [pM]) double data points 02122015” value was 131 pM. The “CXCL-1 Assay (IC50 [pM]) single data points 02052015” value in assay [7] was found to be 197 pM. Further, the “STAT3 Phosphorylation; hIL22 % inhibition mAb [0.73 nM]” value with human IL-22 [1] came to 33.8%. Further, the “IC50 (parameter C of the log-logit fit y=(A-D)/(1+(x/C)^B)+D) of inhibition of IL-22-induced CXCL1 production in HT29 cells” value in assay [8] is 29.5 ng/ml. Also, the EC50 came to 0.042 nM in the assay with mouse IL-22 [9], 0.054 nM with human IL-22 [11], 0.019 nM with mouse IL-22 [12] and 0.027 nM with human IL-22 [3]. In addition, the values for the Kd with human IL-22 [10] and with mouse IL-22 [13] were 0.025 nM and 3.28 nM, respectively. For the same molecule, the koff was 4.67e-05 s⁻¹ with human IL-22 [10] and 0.000545 s⁻¹ with mouse IL-22 [13]. Moreover, the binding result in the assay with human IL26, with human IL19, with human IL20, in the assay with INF-λ1, with INF-γ and in the assay with human IL24 was “no binding (tested: 100 ng/ml)” each time.

B5: CPS-01 (antibody, V domains shown)
VH: B1 VH with T30R, N57R, C104V
VL: B1 VL with E49K
notes: Mutant of humanized hum10, whole antibody expressed in CHO cells; also called LC-03 / HC-08
With B5, the binding result with mouse IL-22 [4] and with human IL-22 [5] was “binds” in each case.

B6: CPS-10 (antibody, V domains shown)
VH: B1 VH with T30R, N57R, S102Y, C104V
VL: B1 VL with A54L
notes: Mutant of humanized hum10, whole antibody expressed in CHO cells; also called LC-05 / HC-25
On to B6, for which the binding result with mouse IL-22 [4] and with human IL-22 [5] was “binds” in each case.

B7: CPS-17 (antibody, V domains shown)
VH: B1 VH with T30R, E62R, D101M, S102Y, C104V
VL: B1 VL with S51R
notes: Mutant of humanized hum10, whole antibody expressed in CHO cells; also called LC-04 / HC-49
As to B7, the “IC50 (parameter C of the log-logit fit y=(A-D)/(1+(x/C)^B)+D) of inhibition of IL-22-induced CXCL1 production in HT29 cells” value in assay [8] amounted to 155 ng/ml. The Kd worked out at 0.0522 nM in the assay with human IL-22 [10] and 6.27 nM with mouse IL-22 [13]. The figures for the koff with human IL-22 [10] and with mouse IL-22 [13] were 6.94e-05 s⁻¹ and 0.00158 s⁻¹, respectively. Besides, the binding result with human IL26, with human IL19, with human IL20, in the assay with INF-λ1, with INF-γ and with human IL24 was “no binding (tested: 100 ng/ml)” throughout.

B8: CPS-20 (antibody, V domains shown)
VH: B1 VH with T30R, E62R, D101M, C104V, A105G
VL: B1 VL with Y31K, S51R
notes: Mutant of humanized hum10, whole antibody expressed in CHO cells; also called LC-11 / HC-50
For B8, the binding result in the assay with mouse IL-22 [4] and with human IL-22 [5] was “binds” each time.

B9: CPS-09 (antibody, V domains shown)
VH: B1 VH with T30R, N57R, S102Y, C104V
VL: B1 VL with S51R
notes: Mutant of humanized hum10, whole antibody expressed in CHO cells; also called CPS-hit-09; CSP09
Turning to B9, in the assay with mouse IL-22 [6], the “Acute Phase response 5 µg mIL22 and 5 µg mAb (% signal reduction), molar ratio mIL22: mAb = 4.5:1 (serum amyloid in mice)” value is 73%. For the same molecule, the “Acute Phase response 5 µg mIL22 and 50 µg mAb (% signal reduction), molar ratio of mIL22:mAb = 1:2.2 (serum amyloid in mice)” value with mouse IL-22 [6] came out at 42%. Also, the “CXCL-1 Assay (IC50 [pM]) double data points 02122015” value in [7] worked out at 204 pM. The “CXCL-1 Assay (IC50 [pM]) single data points 02052015” value in assay [7] worked out at 411 pM. Besides, the “STAT3 Phosphorylation; hIL22 % inhibition mAb [0.73 nM]” value with human IL-22 [1] turned out to be 12.1%. Also, the “IC50 (parameter C of the log-logit fit y=(A-D)/(1+(x/C)^B)+D) of inhibition of IL-22-induced CXCL1 production in HT29 cells” value in assay [8] is 61.6 ng/ml. The EC50 with mouse IL-22 [9] came to 0.141 nM; with human IL-22 [11], 0.074 nM; in the assay with mouse IL-22 [12], 0.034 nM; with human IL-22 [3], 0.081 nM. Further, the results for the Kd with human IL-22 [10] and with mouse IL-22 [13] were 0.0253 nM and 3.96 nM, respectively. The koff in the assay with human IL-22 [10] turned out to be 2.18e-05 s⁻¹; with mouse IL-22 [13], 0.000768 s⁻¹.
